Measured values reported in patent publication US20250250357A1 (NANJING ZAIMING PHARMACEUTICAL, published 2025).
Residue numbers refer to the chain shown, from its start.

T1: monkey MSLN full-length protein (NCBI: XP_028696439.1) expressed on HEK293T-monkey MSLN cells (monkey)
T1 construct: Whole encoded precursor
T1 chain: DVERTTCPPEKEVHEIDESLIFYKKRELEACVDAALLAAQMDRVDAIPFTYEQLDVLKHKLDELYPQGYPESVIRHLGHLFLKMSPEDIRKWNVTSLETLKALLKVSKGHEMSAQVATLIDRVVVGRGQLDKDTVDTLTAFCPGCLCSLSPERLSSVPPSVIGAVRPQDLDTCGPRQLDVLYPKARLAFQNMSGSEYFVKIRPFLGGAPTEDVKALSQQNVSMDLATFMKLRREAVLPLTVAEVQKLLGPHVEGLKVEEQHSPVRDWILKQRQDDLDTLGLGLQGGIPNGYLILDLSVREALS

B1: F7.33.24 (scFv, not shown: small tags and cut ends)
scFv: QVQLQQPGTELVKPGASVKLSCKASGYTFTSYWMHWVKQRPGQGLEWIGNVNPSNGGSNYNEKFKNKATLTVDKSSSTADMQLNSLTSEDSAVYYCAPHYIGSRPGFAYWGQGTLVTVSGGGGGSGGGGSGGGGSDIVMTQSQKFMSTSVGDRVSVTCKASQNVGTNIAWYQQKPGQSPKALIYSASYRYSGVPDRFTGSGSGTDFTLTITNVQSEDLAEYFCQQYNSYPLTFGGGTKVEIK
notes: also called S009-F7.33.24 (parental variable regions, in the humanized-antibody ELISA)
B2: F7.33.24-H11 (scFv, not shown: small tags and cut ends)
scFv: EVQLVQSGAEVKKPGASVKVSCKASGYTFTSYWMHWVRQAPGQGLEWMGNVNPSNAGSNYNEKFKNRVTITVDKSASTAYMELSSLRSEDTAVYYCAPHYIGSRPGFAYWGQGTLVTVSSGGGGSGGGGSGGGGSDIVMTQTPLSLSVTPGQPASISCKASQNVGTNIAWYLQKPGQSPQALIYSASYRYSGVPDRFSGSGSGTDFTLKISRVEAEDVGVYYCQQYNSYPLTFGGGTKVEIK
notes: also called S009-F7.33.24 humanized antibody VH2a + VL2
B3: F7.33.24-H12 (scFv, not shown: small tags and cut ends)
scFv: B2 scFv with L172Q
notes: also called S009-F7.33.24 humanized antibody VH2a + VL3
B4: S009-F3.74.20 (antibody, human IgG1, kappa, V domains shown)
VH: RVQLQQSGAELVRPGASVTLSCKASGYTFTDSEMHWVKQTPVHGLEWIGAIDPEIDGTAYNQNFRDKAILTADKSSSTAYMELRSLTSEDSAVYYCTTYFGSGYGYFDVWGTGTTVTVSS
VL: DVVMTQTPLSLSVSLGDQASISCRSSQSLVYSNGNTYLHWFLQKPGQSPKLLIYKVSNRFSGVPDRFSGSGSGTDFTLKINRVEAEDLGVYFCSQSTHIPFTFGAGTKLELKR
notes: human-murine chimeric antibody, human IgG1/kappa constant regions
B5: S009-F3.38.10 (antibody, human IgG1, kappa, V domains shown)
VH: EVQLQQSGPVLVKPGASVKMSCEASGYIFTDYYMNWVKKSHGKSLEWIGVINPKNGVISHNQKFKGKATLTVDKSSNTAYMELSSLTSEDSAVYYCANYGSRFYAMDYWGQGTSVTVSS
VL: DVVMTQTPLSLPVSLGDQASISCRSSQSLIHSDGNTYLQWYLQKSGQSPKLLIYKVSNRFSGVPDRFSGSGSGTDFTLKISRVETEDLGVYFCSQTTHVPFTFGSGTKLEIKR
notes: as for B4
B6: S009-F3.7.3 (antibody, human IgG1, kappa, V domains shown)
VH: EVNFEESGGGLVQPGGSMKLSCVASGFTFSNYWMNWVRQSPEKGLEWVAQIRLKSDNYATHYAESVKGRFTISRDDFKSSVYLQMNNLRAEDTGIYYCTVGTGGYWGQGTTLTVSS
VL: DIVLTQSPASLAMSLGKRATISCRASESVSIVGTNVIHWFQQKPGQPPKLLIYHASNLETGVPARFSGSGSGTDFTLTIDPVEEDDVAIYHCLQSRKIPWTFGGGTKLEIKR
notes: as for B4
B7: S009-F3.16.1 (antibody, human IgG1, kappa, V domains shown)
VH: B6 VH with N3K, T71S, F77S, T99S
VL: B6 VL with M13L, L15P, V32I, N35D, G72R, H91Y
notes: as for B4
B8: S009-F3.45.21 (antibody, human IgG1, kappa, V domains shown)
VH: DVQLQESGPGLVKPSQSLSLTCSVTGDSITSGYYWNWIRQFPGNKLEWMGFIRFDGTNNYNPSLKNRISITRDTSKNQFFLKLNSVTTEDTATYYCAREGSYAPAWFAYWGQGTLVTVSA
VL: QIVLTQSPAIMSASPGEKVTMTCSASSSLSYMYWYQQKPGSSPRLLIYDTSNLASGVPVRFSGSGSGTSYSLTISRMEAEDAATYYCQQWSSYPPTFGGGTKLEIKR
notes: as for B4
B9: S009-F3.23.1 (antibody, human IgG1, kappa, V domains shown)
VH: QVQLQQSGADLVRPGASVTLSCKASGYTFTDYEMHWVKQTPVHGLEWIGAIDPETGDTVYNQNFKGKAILTADKSSSTAYMELRSLTSEDSAVYYCTRYGYDWGWGQGTTLTVSS
VL: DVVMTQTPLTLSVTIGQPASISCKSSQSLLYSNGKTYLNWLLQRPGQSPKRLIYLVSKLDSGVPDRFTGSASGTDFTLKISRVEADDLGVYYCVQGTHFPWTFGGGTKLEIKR
notes: as for B4
B10: S009-F3.51.8 (antibody, human IgG1, kappa, V domains shown)
VH: QVQLQQSGAELVRPGASVTLSCKASGYTFTDYEMHWVKQTPVHGLEWIGGFDPETGGTAHNQKFKGKAILTADKSSSTAYMELRSLTSEDSAVYYCSNYGSIWGDCWGQGTSVTVSS
VL: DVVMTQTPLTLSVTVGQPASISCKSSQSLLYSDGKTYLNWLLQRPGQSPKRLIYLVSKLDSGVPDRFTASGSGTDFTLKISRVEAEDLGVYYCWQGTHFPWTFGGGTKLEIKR
notes: as for B4
B11: S009-F3-63.5 (antibody, human IgG1, kappa, V domains shown)
VH: QVQLQQSGAELVRPGASVTLSCKASGYTFTDYEMHWVKQTPVHGLEWIGGIDPETGDTAYNQQFKGKAILTADRSSSTAYMELRSLTSEDSAVYYCTNYASSREDYWGQGTTLTVSS
VL: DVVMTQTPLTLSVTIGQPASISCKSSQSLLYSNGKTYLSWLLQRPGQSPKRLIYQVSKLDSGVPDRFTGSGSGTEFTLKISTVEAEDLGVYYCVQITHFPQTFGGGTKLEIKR
notes: as for B4

Molecular target: T2, human MSLN-R3 protein (human, UniProt Q13421 487-598)
T2 construct: also called hMSLN-R3
Assay: ELISA on coated antigen, antibody 1 nM

T2 sequence (Q13421 495-606, form in doubt): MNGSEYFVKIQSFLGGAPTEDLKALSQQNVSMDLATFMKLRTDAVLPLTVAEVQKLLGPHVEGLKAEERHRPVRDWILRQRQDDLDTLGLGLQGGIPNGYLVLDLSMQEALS

| OD450 | Binder |
| --- | --- |
| 0.71 OD450 | B1 |
| 0.68 OD450 | B2 |
| 0.65 OD450 | B3 |

Molecular target: T3, human MSLN-hFc protein (Acro, Cat. No. MSN-H5253) (human, UniProt Q13421 296-580)
T3 construct: the method names the coated protein as human MSLN-hFc (Acro); also called human MSLN full-length protein
Assay: ELISA on coated antigen, antibody 100 nM

T3 sequence (Q13421 other isoform, or with tags, fused parts or gaps limits assumed): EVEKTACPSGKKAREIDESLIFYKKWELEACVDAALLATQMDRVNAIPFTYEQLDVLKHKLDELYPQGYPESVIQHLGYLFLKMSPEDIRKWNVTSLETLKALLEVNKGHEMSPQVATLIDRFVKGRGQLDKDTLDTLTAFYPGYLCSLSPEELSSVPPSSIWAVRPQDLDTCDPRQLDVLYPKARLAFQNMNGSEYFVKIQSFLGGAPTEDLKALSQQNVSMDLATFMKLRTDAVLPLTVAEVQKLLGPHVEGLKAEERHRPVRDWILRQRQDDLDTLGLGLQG

| OD450 | Binder |
| --- | --- |
| 2.58 OD450 | B1 |
| 2.65 OD450 | B2 |
| 2.65 OD450 | B3 |

Molecular target: T3, human MSLN-hFc protein (Acro, Cat. No. …)
Assay: ELISA on coated antigen, antibody 1 nM

| OD450 | Binder |
| --- | --- |
| 0.27 OD450 | B1 |
| 0.57 OD450 | B2 |
| 0.58 OD450 | B3 |

Molecular target: T2, human MSLN-R3 protein
Assay: ELISA on coated antigen, antibody 10 nM

| OD450 | Binder |
| --- | --- |
| 1.78 OD450 | B1 |
| 1.94 OD450 | B2 |
| 1.95 OD450 | B3 |

Molecular target: T4, human MSLN-R3 protein (Met487-Ser606 of NCBI AAH09272.1) expressed on HEK293T-hMSLN-R3 cells (human, UniProt Q13421 487-606)
T4 construct: also called Region3
Assay: FACS on HEK293T-hMSLN-R3 cells

T4 sequence (Q13421 495-614): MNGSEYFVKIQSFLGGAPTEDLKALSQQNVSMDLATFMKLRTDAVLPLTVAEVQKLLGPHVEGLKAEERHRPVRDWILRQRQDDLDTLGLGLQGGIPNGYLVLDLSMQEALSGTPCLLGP

| EC50 | Maximum mean fluorescence intensity | binding result | Binder |
| --- | --- | --- | --- |
| 0.62 nM | 5070 |  | B4 |
| 3.41 nM | 6770 |  | B5 |
| 0.72 nM | 7920 |  | B6 |
| 0.43 nM | 8060 |  | B7 |
|  | 81 | no binding | B8 |
| 0.84 nM | 4240 |  | B9 |
| 0.75 nM | 4470 |  | B10 |
| 1.18 nM | 8270 |  | B11 |

Molecular target: T2, human MSLN-R3 protein
Assay: ELISA on coated antigen, antibody 0.1 nM

| OD450 | Binder |
| --- | --- |
| 0.09 OD450 | B1 |
| 0.09 OD450 | B2 |
| 0.09 OD450 | B3 |

Molecular target: T2, human MSLN-R3 protein
Assay: ELISA on coated antigen, antibody 0.01 nM

| OD450 | Binder |
| --- | --- |
| 0.04 OD450 | B1 |
| 0.05 OD450 | B2 |
| 0.04 OD450 | B3 |

Molecular target: T3, human MSLN-hFc protein (Acro, Cat. No. …)
Assay: ELISA on coated antigen, antibody 0.1 nM

| OD450 | Binder |
| --- | --- |
| 0.06 OD450 | B1 |
| 0.09 OD450 | B2 |
| 0.1 OD450 | B3 |

Molecular target: T5, human MSLN full-length protein (NCBI: AAH09272.1) expressed on HEK293T-hMSLN-B8 cells (human, UniProt Q13421 296-598)
T5 construct: Whole encoded precursor
Assay: FACS on HEK293T-hMSLN-B8 cells

T5 sequence (Q13421 other isoform, or with tags, fused parts or gaps limits assumed): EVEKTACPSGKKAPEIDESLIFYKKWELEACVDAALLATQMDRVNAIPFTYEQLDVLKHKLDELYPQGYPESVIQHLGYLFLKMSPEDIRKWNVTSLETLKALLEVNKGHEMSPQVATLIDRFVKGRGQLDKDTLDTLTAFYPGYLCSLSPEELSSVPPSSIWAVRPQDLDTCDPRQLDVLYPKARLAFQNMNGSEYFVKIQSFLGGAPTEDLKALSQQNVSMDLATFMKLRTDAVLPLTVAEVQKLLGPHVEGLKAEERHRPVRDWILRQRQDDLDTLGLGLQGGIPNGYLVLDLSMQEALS

| EC50 | Maximum mean fluorescence intensity | Binder |
| --- | --- | --- |
| 8.68 nM | 36400 | B4 |
| 6.84 nM | 80600 | B5 |
| 2.25 nM | 88800 | B6 |
| 1.46 nM | 89800 | B7 |
| 1.41 nM | 97600 | B8 |
| 33.7 nM | 26400 | B9 |
| 21.8 nM | 27900 | B10 |
|  | 35400 | B11 |

Molecular target: T3, human MSLN-hFc protein (Acro, Cat. No. …)
Assay: ELISA on coated antigen, antibody 10 nM

| OD450 | Binder |
| --- | --- |
| 1.63 OD450 | B1 |
| 2.18 OD450 | B2 |
| 2.28 OD450 | B3 |

Molecular target: T2, human MSLN-R3 protein
Assay: ELISA on coated antigen, antibody 0.001 nM

| OD450 | Binder |
| --- | --- |
| 0.04 OD450 | B1 |
| 0.04 OD450 | B2 |
| 0.04 OD450 | B3 |

Molecular target: T2, human MSLN-R3 protein
Assay: ELISA on coated antigen, antibody 0.0001 nM

| OD450 | Binder |
| --- | --- |
| 0.04 OD450 | B1 |
| 0.05 OD450 | B2 |
| 0.04 OD450 | B3 |

Molecular target: T3, human MSLN-hFc protein (Acro, Cat. No. …)
Assay: ELISA on coated antigen, antibody 0.01 nM

| OD450 | Binder |
| --- | --- |
| 0.21 OD450 | B1 |
| 0.04 OD450 | B2 |
| 0.04 OD450 | B3 |

Molecular target: T3, human MSLN-hFc protein (Acro, Cat. No. …)
Assay: ELISA on coated antigen, antibody 0.001 nM

| OD450 | Binder |
| --- | --- |
| 0.26 OD450 | B1 |
| 0.04 OD450 | B2 |
| 0.04 OD450 | B3 |

Molecular target: T6, human MSLN protein endogenously expressed on OVCAR3 tumor cells (human, UniProt Q13421 296-598)
T6 construct: whole, on cells; Endogenous target on OVCAR3 cells; kept apart from the recombinant full-length construct; also called mesothelin
Assay: FACS on OVCAR3 cells

T6 sequence (Q13421 other isoform, or with tags, fused parts or gaps): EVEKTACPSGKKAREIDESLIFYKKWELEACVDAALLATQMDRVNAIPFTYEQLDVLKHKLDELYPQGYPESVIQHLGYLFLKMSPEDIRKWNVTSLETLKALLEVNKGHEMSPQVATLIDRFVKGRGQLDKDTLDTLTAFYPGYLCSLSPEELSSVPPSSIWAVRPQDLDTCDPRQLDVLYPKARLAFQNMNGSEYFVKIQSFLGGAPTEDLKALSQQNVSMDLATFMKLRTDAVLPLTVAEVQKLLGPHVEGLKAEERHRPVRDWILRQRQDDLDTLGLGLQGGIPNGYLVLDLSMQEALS

| Maximum mean fluorescence intensity | EC50 | Binder |
| --- | --- | --- |
| 613 |  | B4 |
| 2620 |  | B5 |
| 3700 | 1.94 nM | B6 |
| 4190 | 1.61 nM | B7 |
| 9710 | 5.61 nM | B8 |
| 288 |  | B9 |
| 337 |  | B10 |
| 227 |  | B11 |

Molecular target: T2, human MSLN-R3 protein
Assay: ELISA on coated antigen, antibody 100 nM

| OD450 | Binder |
| --- | --- |
| 1.92 OD450 | B1 |
| 2.1 OD450 | B2 |
| 2.04 OD450 | B3 |

Molecular target: T3, human MSLN-hFc protein (Acro, Cat. No. …)
Assay: ELISA on coated antigen, antibody 0.0001 nM

| OD450 | Binder |
| --- | --- |
| 0.04 OD450 | B1 |
| 0.04 OD450 | B2 |
| 0.05 OD450 | B3 |

Molecular target: T1, monkey MSLN full-length protein (NCBI: …)
Assay: FACS on HEK293T-monkey MSLN cells

| Maximum mean fluorescence intensity | EC50 | binding result | Binder |
| --- | --- | --- | --- |
| 188 |  |  | B4 |
| 22300 | 4.63 nM |  | B5 |
| 7100 |  |  | B6 |
| 24800 | 1.4 nM |  | B7 |
| 41100 | 0.56 nM |  | B8 |
| 88 |  | no binding | B9 |
| 88 |  | no binding | B10 |
| 105 |  | no binding | B11 |
